# Assay: soluble on expression in E. coli; label from the status in PepcDB or PDB records
row,Sequence,soluble on expression in E. coli
1,GPGSMDDRSLKLAEDFVSARYIDAGRESLRSTARILRSILAQRCCPDEGLTDAAIELILRQLSLMDTNNFARHVGGGEREGRVVSALVRMRHFHLTHGVGRSGDLFSEQPKAAGSSLLYKITNVLMLDLIRQAGAPSTAAAVVVPMA,not soluble
2,GPGSMDIDSPYKILGIPQSASVADIRAAFRRLALTTHPDKQGSNTSGGEAQMMLYSSHPFYVIKEASDILLDPVRRAEYDEGQQRMYARSIGVVSDVHDISDFRLVEERKALCSEDRVCGDVTIQVYEMECRCGGAFEIFLVKGEEGNMDKLCGCDSCSLIVSVRRQTQQ,soluble
3,GPGSMEDPVRCECQKHAQDDGYSQGELLPLTAFRQVEKRYKLYRYDRRTSRRLQVPETDFSDVVDFRNLEANTAANLACISTRECHEDDRLVKCCTFAGVPGMEVFPNFLTDAEQQEFCRAALLEYGDSRRHPNHLSTHASEPRETTRYEPPMRWATVGFSYQWSSKSYCKEKYSHFPRRLRKCVERIARLCNVSQPYEPQTSIVNYFPVGAMMMAHQDVSEEVLQQPLISISLGCSCVFLMGTESRDDTPCAFWLRSGDVIVVSGASRTAYHGVPRIMDDCPQYLCPQNETEEEEGEFYWREQMRHLRVNINVRQVYPDRCEFLNE,not soluble
4,GPGSMEGSGSYRLKRGRDELSTPPASGNFPASDQRGTQNLLRCPWCPNGHLMRPAAKSPTNNSKEEGTHLCTNRSSCPCGAVIDQDRTMSFSCIDGSDLIRNFYNALDDHLETCQIVSQTPSQRDWAPWSIVAERSILFADPSNRKQRHSVDCSPPSLSPDPKGPVFYFLHCDNCGEKEFVC,not soluble
5,GPGSMEPKSVEEYSQQNYWIGRYEVEEQHDWFLSVRQPTIAALCDELLKVFQQRERLHSADGNVEGDQPALRVLHLGTGNSSLCMDLYEAVRERQLPFALHQVAMDYAPNVIERMQSKYSPDILPNAQWIVGDVRKLEEFREYGPFDAVIEKGTMDAIEADKNRPEMKGDVEAMLHGVDTLLKHAKGYGAFLQVTWVAPHLRLPYTKGDAFAWGDQVRYSLLGESDIYRLFVYTVRE,soluble
6,GPGSMERVRIRYVLTGACPPTYSGRVVHDFVALKQPNGCDTTIEMVKERFRSNWPADVKELAESISESGIRVLKAGRVLNDHDSLMRHLTASERKACLVSGDTKVGDTNDEMQKPSVLMHMVIQGNRAPLENSRKEKHKVSSTPEGGNSNEGHEMKKDSCCCVM,soluble
7,GPGSMEVYRRITERVRGALWAHHGRLMSERQFHRILAFVYNNKYEYQIRFDRMEVVGREWGGRVEVVTTPAGYLKRVRVNPCVEDLTLYQQQQLILSAYASACADGRKLMEQAEMNIYKQFLKDLKPIVMGIRDNPEFYTVPENSIETIGGVLQTGDSNNLCHTHRTIPAAKARQPTDEVRARQEWEQKWINSPRGQSWALTLRGKTYFTLHGPQYRPRGAPGAKKETLPLDIPAPYTAMDEKRLLKKNWMAYLDNKHVAEVMWTRVKIADREKRQRLLQETGRAWHRPINEEAINRW,not soluble
8,GPGSMFLSLANKLVVSRQRGSSCERMAQPKERASISSEELVVWKAAERVRKGASLPLSRVARCIASATKLLKVETKVVERVCGDTIVFGPIRGHAADFANILLTKVLPNRCVRNIVFLGNYIDGAHQSLGVLFLIAALIVCSRFHIVPLIGKHEMMYPILSETFGSLRNEMLLCCTRRRQPLEQYESIMKEFFSVLPIACVVENKFFCVAGGPSSKFRTLKEIELITMTQEASNEFVLNEPMDEDEERIADRSAFVASQGTELAFRYTFNAACNFLSRNKLAMLIVGMEYHMSLPDYDSFARPNHYKESIYFPGYMLGRIHPESQLPAVLSIFSAPSFCGVNRNNACIAEIAGNRLVVQELGVYAKRPLVTPGTQDHAFSWAQPMLERAVVAIARDIIRGVIKEDAATDDDAHRKRLEEVAVSKMRRMCMLLRTHNIPFPDVPKLTFR,not soluble
9,GPGSMGQVGGTATSGRGLTALQVAAALRVTAAARLKQAEAAVSSSQAMHSAHCSIAEQSKAIKPEDCSAVQRLTVPSTDHKGKHVEVRVTEYAPDVFSFLRQLKGVTDPQFADEWSLPENRLKMEMGEGRSQALFLKSKTMLLMCKTISVEEVHALLHVLRAYTLHITAHPSSLLMRFYMLLKVSVRSEEGYILCFNDVFGTASVLHEKWDIKGRVPKNGKHLHYPHLIGSGYEPDPHATKPPPKRHVLANPAIDASQQHPGRESAVVVRGTKDAQGLPTLHDKDLTRLFWVPRTARKRLVEELLRDYDFLKNAGMMDYSLLIGVAYQDDKTRPSDKHCGIESTNVTSSSAVAPASTSAEARPASLAQDSHPSGTRTMLTTVPEFANGVRSFDGQEMYYIGVIDVLTTYTLKKKSANFFKSLLWKQKTLSTIPPDRYAQRIASFTELIFPDVKEEANGG,not soluble
10,GPGSMHASVVLNMCTASQYTRRTLQSLFERREVDLSALVHVLADNAGYLAATQQGCISLMRVFELCDAAQKAELVRELLPKLAALSMDAFANYMVQCAIEHSDRATAAQYVVAHFTGNILQMSCNKHSSNVLEVVLRCCGEVPAVRRLFLDELVFNPAALKEVVGDLYGNFVVQALIGVVTNPMEFKRVEDRLRPALVGCQFAAKIEGKIKAKRPVPPHAGGAVHHHSYPQSRQQRPLSVPCTMPDHVGPCAPSVRATIALPQAPVMSLGEARVPTQGYCHRPYDCNPLCCAPLAAEQQQPQNVVQAPSGHVYPVDHFQFPILKERTAARAAGAVPVTDGEDSGPVYGPSPAARRHLQQQQQQAFRPPFNIMC,not soluble
11,GPGSMIGLYRVVQFVHLTFFSTGHDLKRRYSKAGDWAVVTGGTEGIGRAVALDLANRGFNVCVISRTQSKLDEVVAEIEKCGTRGHSIAFDFATAGEAEYKMLFAKLDSLAVGLLVNNVGVNYTYANYFDEADVVDDLRIIKVNCEATTRMTKFFAPRMKARRAGGIVLLGSFSAVTPAPLLATYAGTKAFNVSFGDALFYELKKFGVDVLVVTPNLVVSRMTQGASTRAPKETFLTVGAAAMARQTLNQLGVVNRTAGHRNHIIIEAIARLLPESLRGEKMLAMHESIKKRAERKAKQ,not soluble
12,GPGSMLNTFMFPGQGSQAKGMGGALFDRFADLTAQADAVLGYSIRALCVDDPRDELGRTQFTQPALYVVNALTYYAKCEDSGETPDFLAGHSLGEFNALLAAGCFDFETGLKLVARRAELMSQARDGAMAAIVNASREQIERTLDEHGLVDTAIANDNTPSQLVISGPAHEIARAEALFQHDRVRYLRLNTSGAFHSKFMRPAQQAFAAHLQSFRLADPAIPVISNVSARPYENGRVSEGLAQQIASPVRWCESIRYLLALAAERGEAIEFTELGHGDVLTRLVHTIRRQTPAPAAAATSARARPTPPGEPERPAQQTAAAPRASDSASASLGAAERVAAWNRDYPVGTRVRSSLIHDDVLETRTPATVLFGHRAAVYMKGYNGYFDLAEVTPA,soluble
13,GPGSMLPHSQPLVLPMEPSNWAVMPPTGVEMPMEPGTFEDISTAGWIGPRRRSFCGPQTEEEWEDLMIHRSSLRRESGQGTGVGLSGSGCLLGTDDPDRDVLCEYYGDMANRDEKVLSCGLRGQEGRRVLGNKPLRQRPNGPMRERTNYGSLASRRQRVMEEGGVWGDVEVCCVPVEPWHPMDMVCLGEERPEDVCVLRQTDTELYGTGRAFATDGKP,not soluble
14,GPGSMLVDRLQLSCEGTTTAGFTPLLEQFDKGTATQERGAEERAEGNLTPLRVYFRNKRHSLWGHRLWNAAKYMVKRMDSRMIDVRGKTVLELGAGLGVPSLAAFRNGARCVVATDYPDGDLLEILEMNVKANCRADLIDADAAAFLLQEAERLKLAQGYEKSGETVFSEAERQRALSTRCVVEPLLWGKQEHIQKVMSYTGGGGFDIVLLSDILFNHVCNDDLADTIVRVLQRSQHAAAYCVFSHHRAHKQVEDLEFFDKCVARGLRFEQVDEENYPMMFPDDSGPAEIRQPVKTYKIVHYFDDAGMAFQPGNDVFDVVIQGTGMVESIVSAALARSGIRVLHCDGEDDYGGAFKTMTVERMREYITGPLPASLDGAADNRDGRGDHEENHPRCNDGVIAVDRMDELKLHERRSFLLDLLPTHNLSNGETVRQLITSDMARHME,not soluble
15,GPGSMNPLSTRRLGGTVTPGSALSGTCYVSHITRPARTMCWMKLAVFTQFPVVPSLAGTQVQGRQDLLASTAGAGTPEEASLFLQIELFDDECPQLCANFRRLCNGQSSTRQGQVYCFQGLTPSYCGTYFHKIIPSYCVQGGDITMRVKPGGTNSYSSAGRTWLPDEFKKRRHNEIGLVSMANNGPNSNGSQFFITTSAAHERAFNGRHCCIGHVVRGLDAFIALVAPFGNIEGHPSKYAVVVDCGEGEAPTLMSASSSPAAVFQASMAISETGTAGSSPAADSRSVSVEEAPAELDAHYCEQPPQLQLQHRQAADGTGVMAALSPSDAAAAAAPLSISPAQPLKSSLKEKTTAVSEAAKTHAKHVTYQL,not soluble
16,GPGSMPIKAVVTDLDGTLLDPQHCISNYAAEVLKKIKEKGICFIVATGRPYAEVFNRIRHCHLAPDYIITSNGARIHDGAFNVVREHNLRPELVESLARVRTVKDPATGAELPKKFTTNIYRGAEWLTDKSIPEVSKAFHTDFQCTDLRERFYELQASELGDVHEIWFAGDHDELVLLDNALREKYPGDLCCTFSLPHLLDCVPAGVNKGNGVREAAEMLGLALDEVACFGDGMNDESMLQVTSTSFIMANAQQRLKDAVPHAQIIGSNADDGVAKKLEEMFFSA,soluble
17,GPGSMPPKNAVKRNQKSSKQRDNFDEAAIDALIMAIEGKAKKGTTKSQLKQKEDKSLSRANGQSYVLSEQMRNALLAQMQQPTAQEEQYVNVPVPLTGEEKGWQEVAPNRYIRYEQFGGSDAEMNFIVNLFTAELTEPYSSFTYQYFVFGWPDLCITAFGVESETKPDNSVVGEKVGAVVSRVTRKGAGMPLRGYVAMFAVVPKFRGYRLGSRLVSLTVELMRAKGCDEVYLETPTSNVRALGLYLNLGFAKTKYLPRYYLDHSDARASEAVAEGCHPKVCPRDCFHGWCGEGVAGTLRVCLE,soluble
18,GPGSMPSPLVLTRAAPARGLNVKMFDRKVKGLQRSFVSSPACDLHKLCAQQMLDRRTFVKRDTPVVLEVGAHTGWYLRHMIERKEFHGLKQYIQTDISEDRLNRNYEEIKNIIPPEVEFVQICCDEEQPSPFGIPDKSVDMVVSCLSMHWVNDLETSMVNVRKVLKRDGFFLNAMFGGNTLYELRGCFSMAQTETLGGVSPHVSPMIDGAGLSTLVLQAGFNIPTIDLDRHLLLYETPFHLMEHLAVMGESACHYMRQPMKRDVLLCACAIYDTMYKQNGLFPATFEVFHTIAWSPSPTQAKPLARGSGQIPLSSWNSKSRKQLQSVLDEYALNPNDEVLQNKAEDIFKKLREESAELMAKKGLDSRGFERDRDEEARRLDEKPVPPFQ,not soluble
19,GPGSMQQSLIPGHNNNRHLTVEEIENNIGGLAITDNKLQELFDSLDVERTGYLPIGEVKKFYKGLEHYGLEPTDAEIESEMKKFAKSDENFMSYDEFCCLMLSFAQR,not soluble
20,GPGSMQRSTRIVMAPFKSVLRRHKHHPEGLPLYNDMSKQWLCREGERWWLLDARGEQLPRVAAVAAQYITGQHRPDFTPGMITGDHVVIVNIKDVVMVGDQWIRVPITWQTAYPGGKYRIRLTDMYERDPCMLMWWFLKDEVNRHFVRKLKTRIAPLEKAWLYEDSIHPHADKNPRPLCWTDPEVKGWKYRDPQFIRRWKPNEFMH,not soluble
21,GPGSMRGSDAMATHASRWRPPQNPAAVRKYSNETAAPQPPAKIIMEDHSLAEVFRRSAAFQRILAYVQGCSEAVESTPNHQRLSATVDDCDDTVRYLVTDYLPRLHDIVTAIPLEDMAQQRFGNRAKRVFHARLEETVVADMEKLVRTFPTSAGRSEEAITDMATEVAAYVMDSFGNATRLDYGSGHELHFFIVIMICLEEHGDGGGSLKDEPAVLVPLEVPPPPPVPPMERAEVRKRRQDYIFYIFHEYMRLVRRLQKRYSLEPAGSHGVWGLDDYHHIPYIFGGAQLINAEVQPVKPAAGQEAMLVLPKHICDRAKVEMLKDSYLYFSMIAWILENKTGPFHEHSNMLYNISGVEHWSKIYSGMVKMFAAEVLAKYNVSQHLLFGRHLPWNTKTM,soluble
